Earlier results on one substance are cited in patent US20240307501A1 (priority 2021, published 2024).

For the series the following is noted: chronic doses of glucagon, patients with CHI, across 2 studies.

Turning to “Glucagon: native glucagon used off-label by IV or continuous SC infusion for CHI”, the “patients with erythema necrolyticum” value is listed as 4 out of 11.
